According to US20210388105A1 (ELPISCIENCE SUZHOU BIOPHARMA, published 2021):
Substitutions are numbered along the chain they refer to.

T1: human CD39 (full length, on cells) (human, UniProt P49961 1-510)
T1 construct: Recombinant on CHOK1-hCD39 cells or natural on SK-MEL-28, SK-MEL-5 and MOLP-8 cells; the cell line is named under assay; also called hCD39; ENTPD1
T1 sequence: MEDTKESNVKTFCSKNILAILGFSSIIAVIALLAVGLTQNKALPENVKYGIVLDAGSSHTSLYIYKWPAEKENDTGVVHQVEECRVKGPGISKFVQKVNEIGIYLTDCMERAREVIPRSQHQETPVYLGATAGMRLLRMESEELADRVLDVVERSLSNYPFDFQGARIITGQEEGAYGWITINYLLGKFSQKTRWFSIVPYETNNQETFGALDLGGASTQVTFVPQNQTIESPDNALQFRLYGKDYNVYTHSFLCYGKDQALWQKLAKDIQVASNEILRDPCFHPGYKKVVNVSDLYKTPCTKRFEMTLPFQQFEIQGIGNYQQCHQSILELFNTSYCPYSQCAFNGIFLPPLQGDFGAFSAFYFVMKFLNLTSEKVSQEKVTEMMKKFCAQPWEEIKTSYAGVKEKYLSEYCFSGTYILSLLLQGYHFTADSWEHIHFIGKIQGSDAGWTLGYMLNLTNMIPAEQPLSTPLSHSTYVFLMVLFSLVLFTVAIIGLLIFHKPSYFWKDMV

B1: hu23.H2L2 (antibody, V domains shown)
VH: QVQLVQSGAEVKKPGASVKVSCKASGYNLKDTFLHWVRQAPGQGLEWMGRIDPANGNIKYDPKFQGRVTITADTSASTAYMELSSLRSEDTAVYYCANSPYYYGSGYRIFDVWGQGTTVTVSS
VL: EIVLTQSPATLSLSPGERATLSCSAFSSVNYMHWYQQKPGQAPRLLIYTTSNLASGIPARFSGSGSGTDYTLTISSLEPEDFAVYYCQQRSTYPFTFGQGTKLEIK
notes: humanized c23
B2: hu23.H6L7 (antibody, V domains shown)
VH: B1 VH with Q1E, V20L, M48I, V68A, S77N, S84I
VL: B1 VL with E1Q, L13A, A19V, L21I, S22T, R44K, I57V, A59T, D69S, L77M
notes: humanized c23
B3: hu23.H7L6 (antibody, V domains shown)
VH: B1 VH with Q1E, V20L, R38K, M48I, R67K, V68A, I70L, S77N, M81L, S84I
VL: B1 VL with E1Q, L13A, R44K, I57V, A59T, D69S, L77M
notes: humanized c23
B4: hu23.H7L5 (antibody, V domains shown)
VH: B1 VH with Q1E, V20L, R38K, M48I, R67K, V68A, I70L, S77N, M81L, S84I
VL: B1 VL with E1Q, A59T, D69S
notes: humanized c23
B5: hu23.H7L7 (antibody, V domains shown)
VH: B1 VH with Q1E, V20L, R38K, M48I, R67K, V68A, I70L, S77N, M81L, S84I
VL: B1 VL with E1Q, L13A, A19V, L21I, S22T, R44K, I57V, A59T, D69S, L77M
notes: humanized c23
B6: hu23.H6L6 (antibody, V domains shown)
VH: B1 VH with Q1E, V20L, M48I, V68A, S77N, S84I
VL: B1 VL with E1Q, L13A, R44K, I57V, A59T, D69S, L77M
notes: humanized c23
B7: hu23.H4L4 (antibody, V domains shown)
VH: B1 VH with V20L, R38K, M48I, V68A, I70L, M81L
VL: B1 VL with L13A, A19V, L21I, L77M
notes: humanized c23
B8: hu23.H1L1 (antibody, V domains shown)
VH: B1 VH with G44R, A72R, N98R
VL: B1 VL with Y70F
notes: humanized c23
B9: hu23.H3L3 (antibody, V domains shown)
VH: B1 VH with V20L, M48I, V68A
VL: B1 VL with L13A, L77M
notes: humanized c23
B10: hu23.H4L2 (antibody, V domains shown)
VH: B1 VH with V20L, R38K, M48I, V68A, I70L, M81L
VL: B1 VL
notes: humanized c23
B11: hu23.H1L4 (antibody, V domains shown)
VH: B1 VH with G44R, A72R, N98R
VL: B1 VL with L13A, A19V, L21I, L77M
notes: humanized c23
B12: hu23.H4L1 (antibody, V domains shown)
VH: B1 VH with V20L, R38K, M48I, V68A, I70L, M81L
VL: B1 VL with Y70F
notes: humanized c23
B13: hu23.H3L4 (antibody, V domains shown)
VH: B1 VH with V20L, M48I, V68A
VL: B1 VL with L13A, A19V, L21I, L77M
notes: humanized c23
B14: hu23.H1L3 (antibody, V domains shown)
VH: B1 VH with G44R, A72R, N98R
VL: B1 VL with L13A, L77M
notes: humanized c23
B15: hu23.H2L4 (antibody, V domains shown)
VH: B1 VH
VL: B1 VL with L13A, A19V, L21I, L77M
notes: humanized c23
B16: hu23.H1L2 (antibody, V domains shown)
VH: B1 VH with G44R, A72R, N98R
VL: B1 VL
notes: humanized c23
B17: hu23.H3L2 (antibody, V domains shown)
VH: B1 VH with V20L, M48I, V68A
VL: B1 VL
notes: humanized c23
B18: hu23.H6L5 (antibody, V domains shown)
VH: B1 VH with Q1E, V20L, M48I, V68A, S77N, S84I
VL: B1 VL with E1Q, A59T, D69S
notes: humanized c23
B19: hu23.H5L1 (antibody, V domains shown)
VH: B1 VH with S77N, S84I
VL: B1 VL with Y70F
notes: humanized c23
B20: hu23.H5L6 (antibody, V domains shown)
VH: B1 VH with S77N, S84I
VL: B1 VL with E1Q, L13A, R44K, I57V, A59T, D69S, L77M
notes: humanized c23
B21: hu23.H2L3 (antibody, V domains shown)
VH: B1 VH
VL: B1 VL with L13A, L77M
notes: humanized c23
B22: hu23.H6L1 (antibody, V domains shown)
VH: B1 VH with Q1E, V20L, M48I, V68A, S77N, S84I
VL: B1 VL with Y70F
notes: humanized c23
B23: hu23.H5L7 (antibody, V domains shown)
VH: B1 VH with S77N, S84I
VL: B1 VL with E1Q, L13A, A19V, L21I, S22T, R44K, I57V, A59T, D69S, L77M
notes: humanized c23
B24: hu23.H2L1 (antibody, V domains shown)
VH: B1 VH
VL: B1 VL with Y70F
notes: humanized c23
B25: hu23.H4L3 (antibody, V domains shown)
VH: B1 VH with V20L, R38K, M48I, V68A, I70L, M81L
VL: B1 VL with L13A, L77M
notes: humanized c23
B26: hu23.H7L1 (antibody, V domains shown)
VH: B1 VH with Q1E, V20L, R38K, M48I, R67K, V68A, I70L, S77N, M81L, S84I
VL: B1 VL with Y70F
notes: humanized c23

What follows are binders tested against T1, human CD39 (full length, on cells) (assay: FACS, MOLP-8 cells).
Procedure: Similarly, human CD39 expressing cells SK-MEL-5, SK-MEL-28 or MOLP-8, were incubated with a gradient concentration of anti-CD39 antibodies for 30 minutes at 4° C. Cells were washed 3 times using FACS buffer and next incubated with fluorescence labelled secondary antibody (goat-anti-mouse IgG or goat anti-human IgG) for 30 minutes at 4° C. Cells were washed 3 times and then re-suspended in FACS buffer and analyzed by flow cytometry analysis on BD Celesta. Data plotted and analyzed using GraphPad Prism 8.02.
The binding affinity of the humanized antibodies for c23 was determined by FACS, using similar methods as described in Example 3.2. The c23 humanized antibody clones showing good binding affinity are listed in below Table 19 and Table 20, and also shown in FIGS. 7A, 7B and FIG. 8. EC₅₀ is the concentration of the indicated antibodies to reach 50% of the signal in this assay.

EC50 [pM] | binding result | Binder
979 | – | B1
122 | – | B2
271 | – | B3
250 | – | B4
250 | – | B5
237 | – | B6
1010 | – | B7
~77100 | – | B8
3290 | – | B9
1150 | – | B10
1500 | – | B11
– | no binding | B12
1610 | – | B13
2780 | – | B14
1460 | – | B15
1160 | – | B16
1340 | – | B17
593 | – | B18
262 | – | B19
202 | – | B20
2030 | – | B21
246 | – | B22
179 | – | B23
65900 | – | B24
1870 | – | B25
366 | – | B26

What follows are binders tested against T1, human CD39 (full length, on cells) (assay: cell-based or functional assay).

ATPase inhibition IC50 on SK-MEL-28 cells [pM] | Binder
767 | B1
121 | B3
144 | B4
487 | B7
590 | B11
964 | B16
130 | B20
147 | B26
